The source of these data is patent US20170315124A1 (ATTOGEN BIOMEDICAL SUZHOU, published 2017).

Assay [1] concerns the target T1, GST-HPV16 L2 fusion protein (HPV16, UniProt P03107 1-473).
T1 construct: Specificity control antigen in the ELISA; also called recombinant protein HPV16 L2; not shown: glutathione S-transferase (GST) fusion partner
T1 sequence: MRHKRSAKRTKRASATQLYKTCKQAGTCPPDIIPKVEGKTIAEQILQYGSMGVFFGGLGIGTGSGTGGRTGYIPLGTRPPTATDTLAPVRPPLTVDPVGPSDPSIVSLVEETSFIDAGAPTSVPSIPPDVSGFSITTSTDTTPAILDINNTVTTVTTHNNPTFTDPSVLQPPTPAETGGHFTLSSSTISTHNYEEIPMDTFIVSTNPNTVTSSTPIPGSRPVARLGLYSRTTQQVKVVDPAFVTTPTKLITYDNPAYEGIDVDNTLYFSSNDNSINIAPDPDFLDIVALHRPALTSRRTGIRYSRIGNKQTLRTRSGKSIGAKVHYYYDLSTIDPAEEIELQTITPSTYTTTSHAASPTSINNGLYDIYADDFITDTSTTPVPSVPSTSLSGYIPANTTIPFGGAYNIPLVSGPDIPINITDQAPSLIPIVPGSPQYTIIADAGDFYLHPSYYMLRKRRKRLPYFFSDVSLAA
The assay can be described thus: indirect ELISA on coated antigen.

Another assay has as its target T2, polypeptide HPV16 E7-1 (HPV16).
T2 peptide: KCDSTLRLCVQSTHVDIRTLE
The assay can be described thus: indirect ELISA on coated peptide.

For assay [2], the target named is T3, His-HPV16 E7 recombinant fusion protein (HPV16, UniProt P03129 2-98).
T3 construct: also called recombinant protein HPV16 E7; not shown: His tag
T3 sequence: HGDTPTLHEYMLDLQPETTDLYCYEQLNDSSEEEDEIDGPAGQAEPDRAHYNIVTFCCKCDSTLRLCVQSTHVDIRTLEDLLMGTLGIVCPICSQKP
The assay can be described thus: indirect ELISA, method of Beatty et al.; reference 2G7.

In assay [3] the target is T3, His-HPV16 E7 recombinant fusion protein. The assay can be described thus: indirect ELISA, method of Beatty et al.; reference 1H11. In general terms: In an ELISA, binding on a coated surface is turned into a signal by an enzyme label.
Assay [4] shares this target. The assay can be described thus: indirect ELISA, method of Beatty et al.; His-HPV16 E7 coated at 4 concentrations, 7B6 in 8 two-fold dilutions from 2 µg/ml; mean of 6 K values.

B1: anti-HPV16 E7 monoclonal antibody 7B6 (antibody, V domains shown)
VH: VKLQESGPELVKPGASMKISCKASGYSFTGSTMNWVKQSHGKNLEWIGLIDPYNGVIRYNQKFKGRATLTIDKSSSTAYMELLSLTSDDSAVYYCARKLRYWGQGTTLTVSS
VL: ATQSPSSLNVSPGEKVTMSCKSSQSLLNSGNQRNYLAWYQQKPGQPPKLLIYGASTRESGVPDRFTGSGSGTDFTLTISSVQAEDLAVYYCQNDLSYPLTFGAGTKLELK
notes: also called mAb anti-HPV16E7 7B6
The term Kd denotes the free concentration of one partner at which half of the binding sites on the other are occupied at equilibrium, for simple one-to-one binding. B1: the binding result in assay [1] is “no binding (tested: 7B6 1 µg/ml; antigen coated at 2 µg/ml)”; in the assay with polypeptide HPV16 E7-1, “no binding”. In assay [2], the “fold of binding affinity over 2G7” value was determined as 2 fold. The “fold of binding affinity over 1H11” value in assay [3] was 5 fold. The Kd in assay [4] is 640 pM.
